Experimental data published in patent publication US20260098095A1 (Hoffmann-La Roche, published 2026).

Key:
Test in all cases: cell-based or functional assay
[1] = biological target: T1, HLA-A2/MAGE-A4 peptide MHC (pMHC) complex on cells (human)
[2] = biological target: T1, HLA-A2/MAGE-A4 peptide MHC (pMHC) …; remark: listed apart in the source
E7A = E7A (human)
R6A = R6A (human)
D4A = D4A (human)
Y3A = Y3A (human)
V10A = V10A (human)
T9A = T9A (human)
G5A = G5A (human)
H8A = H8A (human)
[3] = biological target: T1, HLA-A2/MAGE-A4 peptide MHC (pMHC) …; remark: listed apart in the source
G1A = G1A (human)
V2A = V2A (human)
[4] = biological target: HLA-A2 with peptide MAGB6 on T2 cells (human)
KDM1A = KDM1A (human)
DPYSL3 = DPYSL3 (human)
ARF1 = ARF1 (human)
pfkA = pfkA (human)
PKP1 = PKP1 (human)
DYNC1H1 = DYNC1H1 (human)
ARF3 = ARF3 (human)
MTOR = MTOR (human)
FBXO34 = FBXO34 (human)
[5] = biological target: HLA-A2 with peptide MAGA10 on T2 cells (human)
UBE2V2 = UBE2V2 (human)
PIGG = PIGG (human)
DPYSL4 = DPYSL4 (human)
KEAP1 = KEAP1 (human)
MAGEB2 = MAGEB2 (human)
URB1 = URB1 (human)
UNC80 = UNC80 (human)
SLC45A1 = SLC45A1 (human)
VPS13D = VPS13D (human)
EDC3 = EDC3 (human)
BNRF1 = BNRF1 (human)
CCS = CCS (human)
GAPDHS = GAPDHS (human)
gutQ = gutQ (human)
CRMP1 = CRMP1 (human)
[6] = biological target: T1, HLA-A2/MAGE-A4 peptide MHC (pMHC) …; remark: listed apart in the source

B1: Molecule F (bispecific antibody, V domains shown)
VH 1: not shown
VL 1: SSELTQDPAVSVALGQTVRITCQGDSLRSYYASWYQQKPGQAPVLVIYGKNNRPSGIPDRFSGSSSSNTASLTITGAQAEDEADYYCNSRMSSRYHHDVFGGGTKLTVL
VH 2: not shown
VL 2: QAVVTQEPSLTVSPGGTVTLTCGSSTGAVTTSNYANWVQEKPGQAFRGLIGGTNKRAPGTPARFSGSLLGGKAALTLSGAQPEDEAEYYCALWYSNLWVFGGGTKLTVL
**Q.** B1 was tested. Which “EC50 [pM], T-cell mediated lysis of A-375 cells, 24 h” value [1] did it give?
**A.** The value was 822 pM.

**Q.** What about the “EC50 [pM], T-cell mediated lysis of C-33A cells, 24 h” value [1] of the same binder?
**A.** Its value is 186 pM.

**Q.** What about the “EC50 [pM], T-cell mediated lysis of IM-9 cells, 24 h” value [1] of the same binder?
**A.** Its value is 8.3 pM.

**Q.** What about the “EC50 [pM], T-cell mediated lysis of NCI-H1755 cells, 24 h” value [1] of the same binder?
**A.** The value was 2.7 pM.

**Q.** And the “EC50 [pM], T-cell mediated lysis of NCI-H2023 cells, 24 h” value [1]?
**A.** Its value is 890 pM.

**Q.** What about the “EC50 [pM], T-cell mediated lysis of U266B1 cells, 24 h” value [1] of the same binder?
**A.** The value was 352 pM.

**Q.** And the “EC50 [pM], T-cell mediated lysis of UMUC-3 cells, 24 h” value [1]?
**A.** The value was 429 pM.

**Q.** And the “EC50 [pM], activation of Jurkat-NFAT reporter cells (luminescence, 6 h) with MAGE-A4 peptide pulsed T2 cells” value [2]?
**A.** The value was 41.6 pM.

**Q.** What about the “EC50, Jurkat-NFAT activation” value (E7A) of the same binder?
**A.** The value was 0.332 nM.

**Q.** And the “EC50, Jurkat-NFAT activation” value (R6A)?
**A.** The value was 0.196 nM.

**Q.** And the “EC50, Jurkat-NFAT activation” value (D4A)?
**A.** Its value is 9.95 nM.

**Q.** And the “EC50, Jurkat-NFAT activation” value (Y3A)?
**A.** The value was 15 nM.

**Q.** What about the “EC50, Jurkat-NFAT activation” value (V10A) of the same binder?
**A.** The value was 0.791 nM.

**Q.** What about the “EC50, Jurkat-NFAT activation” value (T9A) of the same binder?
**A.** Its value is 0.45 nM.

**Q.** And the “EC50, Jurkat-NFAT activation” value (G5A)?
**A.** The value was 1.09 nM.

**Q.** What about the “EC50, Jurkat-NFAT activation” value (H8A) of the same binder?
**A.** The value was 0.0813 nM.

**Q.** What about the “EC50, Jurkat-NFAT activation” value [3] of the same binder?
**A.** Its value is 0.0954 nM.

**Q.** What about the “EC50, Jurkat-NFAT activation” value (G1A) of the same binder?
**A.** The value was 0.259 nM.

**Q.** What about the “EC50, Jurkat-NFAT activation” value (V2A) of the same binder?
**A.** Its value is 6.57 nM.

**Q.** And the “% of MAGE-A4 signal, Jurkat-NFAT; grey (>2%)” value (shortened to “% of MAGE-A4 signal … (>2%)”) [4]?
**A.** Its value is 130%.

**Q.** What about the “% of MAGE-A4 signal, Jurkat-NFAT” value (KDM1A) of the same binder?
**A.** The value was 0.9%.

**Q.** And the “% of MAGE-A4 signal … (>2%)” value (DPYSL3)?
**A.** The value was 61.9%.

**Q.** And the “% of MAGE-A4 signal, Jurkat-NFAT” value (ARF1)?
**A.** The value was 1.58%.

**Q.** What about the “% of MAGE-A4 signal, Jurkat-NFAT” value (pfkA) of the same binder?
**A.** The value was 0.8%.

**Q.** And the “% of MAGE-A4 signal, Jurkat-NFAT” value (PKP1)?
**A.** Its value is 0.64%.

**Q.** And the “% of MAGE-A4 signal, Jurkat-NFAT” value (DYNC1H1)?
**A.** Its value is 0.64%.

**Q.** And the “% of MAGE-A4 signal, Jurkat-NFAT” value (ARF3)?
**A.** Its value is 1.53%.

**Q.** What about the “% of MAGE-A4 signal, Jurkat-NFAT” value (MTOR) of the same binder?
**A.** Its value is 0.42%.

**Q.** What about the “% of MAGE-A4 signal, Jurkat-NFAT” value (FBXO34) of the same binder?
**A.** The value was 0.78%.

**Q.** And the “% of MAGE-A4 signal … (>2%)” value [5]?
**A.** The value was 145%.

**Q.** And the “% of MAGE-A4 signal, Jurkat-NFAT” value (UBE2V2)?
**A.** The value was 0.71%.

**Q.** And the “% of MAGE-A4 signal, Jurkat-NFAT” value (PIGG)?
**A.** Its value is 0.78%.

**Q.** What about the “% of MAGE-A4 signal … (>2%)” value (DPYSL4) of the same binder?
**A.** The value was 14.2%.

**Q.** And the “% of MAGE-A4 signal, Jurkat-NFAT” value (KEAP1)?
**A.** The value was 0.66%.

**Q.** And the “% of MAGE-A4 signal … (>2%)” value (MAGEB2)?
**A.** The value was 126%.

**Q.** What about the “% of MAGE-A4 signal … (>2%)” value (URB1) of the same binder?
**A.** The value was 78.4%.

**Q.** And the “% of MAGE-A4 signal, Jurkat-NFAT” value (UNC80)?
**A.** The value was 1.05%.

**Q.** And the “% of MAGE-A4 signal, Jurkat-NFAT” value (SLC45A1)?
**A.** Its value is 0.68%.

**Q.** And the “% of MAGE-A4 signal … (>2%)” value (VPS13D)?
**A.** Its value is 172%.

**Q.** And the “% of MAGE-A4 signal, Jurkat-NFAT” value (EDC3)?
**A.** Its value is 0.89%.

**Q.** And the “% of MAGE-A4 signal, Jurkat-NFAT” value (BNRF1)?
**A.** Its value is 0.55%.

**Q.** And the “% of MAGE-A4 signal … (>2%)” value (CCS)?
**A.** Its value is 76.8%.

**Q.** And the “% of MAGE-A4 signal, Jurkat-NFAT” value (GAPDHS)?
**A.** The value was 1.01%.

**Q.** What about the “% of MAGE-A4 signal, Jurkat-NFAT” value (gutQ) of the same binder?
**A.** Its value is 0.73%.

**Q.** And the “% of MAGE-A4 signal … (>2%)” value (CRMP1)?
**A.** Its value is 6.54%.

**Q.** What about the “EC50 [pM] 24 h, T-cell mediated lysis of MAGE-A4 peptide pulsed T2 cells” value [6] of the same binder?
**A.** Its value is 1.5 pM.

B2: Molecule B (bispecific antibody, V domains shown)
VH 1: YPQLVESGGGLVKPGGSLRLSCAARYPFTRLDMSWVRQAPGKGLEWVGSISPKGGSTYYNDNVLGRFTISRDNSKNTLYLQMNSLRAEDTAVYYCARDWGFFDNWGQGTLVTVSS
VL 1: AIQMTQSPSSLSASVGDRVTITCRASQSISNYLAWYQQKPGKAPKLLIYNASHPEYDVPSRFSGSGSGTDFTLTISSLQPEDFATYYCQQYSSHPYTFGQGTKLEIK
VH 2: not shown
VL 2: QAVVTQEPSLTVSPGGTVTLTCGSSTGAVTTSNYANWVQEKPGQAFRGLIGGTNKRAPGTPARFSGSLLGGKAALTLSGAQPEDEAEYYCALWYSNLWVFGGGTKLTVL
**Q.** What does the source list for B2?
**A.** EC50 [pM], T-cell mediated lysis of IM-9 cells, 24 h [1]: 1080 pM; EC50 [pM], T-cell mediated lysis of NCI-H1755 cells, 24 h [1]: 168 pM; EC50 [pM], activation of Jurkat-NFAT reporter cells (luminescence, 6 h) with MAGE-A4 peptide pulsed T2 cells [2]: ~8310 pM; EC50, Jurkat-NFAT activation (E7A): 3.48 nM; EC50, Jurkat-NFAT activation (R6A): 45.5 nM; EC50, Jurkat-NFAT activation (D4A): 191 nM; EC50, Jurkat-NFAT activation (Y3A): 27.9 nM; EC50, Jurkat-NFAT activation (V10A): 1.01 nM; EC50, Jurkat-NFAT activation (T9A): 0.426 nM; EC50, Jurkat-NFAT activation (G5A): 0.181 nM; EC50, Jurkat-NFAT activation (H8A): 0.717 nM; EC50, Jurkat-NFAT activation [3]: 0.189 nM; EC50, Jurkat-NFAT activation (G1A): 141 nM; EC50, Jurkat-NFAT activation (V2A): 0.258 nM; % of MAGE-A4 signal, Jurkat-NFAT; grey (>2%) [4]: 57.9%; % of MAGE-A4 signal, Jurkat-NFAT (KDM1A): 1.04%; % of MAGE-A4 signal, Jurkat-NFAT; grey (>2%) (DPYSL3): 112%; % of MAGE-A4 signal, Jurkat-NFAT (ARF1): 1.14%; % of MAGE-A4 signal, Jurkat-NFAT (pfkA): 1.1%; % of MAGE-A4 signal, Jurkat-NFAT (PKP1): 0.94%; % of MAGE-A4 signal, Jurkat-NFAT (DYNC1H1): 0.85%; % of MAGE-A4 signal, Jurkat-NFAT (ARF3): 1.59%; % of MAGE-A4 signal, Jurkat-NFAT (MTOR): 0.59%; % of MAGE-A4 signal, Jurkat-NFAT (FBXO34): 0.91%; % of MAGE-A4 signal, Jurkat-NFAT; grey (>2%) [5]: 10.6%; % of MAGE-A4 signal, Jurkat-NFAT (UBE2V2): 1.37%; % of MAGE-A4 signal, Jurkat-NFAT (PIGG): 1.46%; % of MAGE-A4 signal, Jurkat-NFAT; grey (>2%) (DPYSL4): 53.1%; % of MAGE-A4 signal, Jurkat-NFAT (KEAP1): 1.07%; % of MAGE-A4 signal, Jurkat-NFAT (MAGEB2): 1.58%; % of MAGE-A4 signal, Jurkat-NFAT; grey (>2%) (URB1): 67.9%; % of MAGE-A4 signal, Jurkat-NFAT (UNC80): 0.98%; % of MAGE-A4 signal, Jurkat-NFAT (SLC45A1): 1.22%; % of MAGE-A4 signal, Jurkat-NFAT (VPS13D): 1.8%; % of MAGE-A4 signal, Jurkat-NFAT (EDC3): 0.63%; % of MAGE-A4 signal, Jurkat-NFAT (BNRF1): 1.05%; % of MAGE-A4 signal, Jurkat-NFAT; grey (>2%) (CCS): 10.8%; % of MAGE-A4 signal, Jurkat-NFAT (GAPDHS): 1.37%; % of MAGE-A4 signal, Jurkat-NFAT (gutQ): 1.11%; % of MAGE-A4 signal, Jurkat-NFAT; grey (>2%) (CRMP1): 67.5%; EC50 [pM] 24 h, T-cell mediated lysis of MAGE-A4 peptide pulsed T2 cells [6]: 72.8 pM
